Results from PMC12227652 (Nature Communications, 2025).
Read-outs that look alike come from different tables or passages of the source.

B2: MIRO1_(1-591), full-length cytosolic human MIRO1 (domain or fragment, UniProt Q8IXI2 1-591, looked up)
chain: MKKDVRILLVGEPRVGKTSLIMSLVSEEFPEEVPPRAEEITIPADVTPERVPTHIVDYSEAEQSDEQLHQEISQANVICIVYAVNNKHSIDKVTSRWIPLINERTDKDSRLPLILVGNKSDLVEYSSMETILPIMNQYTEIETCVECSAKNLKNISELFYYAQKAVLHPTGPLYCPEEKEMKPACIKALTRIFKISDQDNDGTLNDAELNFFQRICFNTPLAPQALEDVKNVVRKHISDGVADSGLTLKGFLFLHTLFIQRGRHETTWTVLRRFGYDDDLDLTPEYLFPLLKIPPDCTTELNHHAYLFLQSTFDKHDLDRDCALSPDELKDLFKVFPYIPWGPDVNNTVCTNERGWITYQGFLSQWTLTTYLDVQRCLEYLGYLGYSILTEQESQASAVTVTRDKKIDLQKKQTQRNVFRCNVIGVKNCGKSGVLQALLGRNLMRQKKIREDHKSYYAINTVYVYGQEKYLLLHDISESEFLTEAEIICDVVCLVYDVSNPKSFEYCARIFKQHFMDSRIPCLIVAAKSDLHEVKQEYSISPTDFCRKHKMPPPQAFTCNTADAPSKDIFVKLTTMAMYPHVTQADLKSST

Experiments:
cryo-EM structure = target: the molecule itself; assay: cryo-EM structure
mass photometry = target: the molecule itself; assay: mass photometry
MIRO1_(177-591) = MIRO1_(177-591) (human, UniProt Q8IXI2 177-591); assay: ITC
[1] = target: B2; assay: pull-down
[2] = target: B2; assay: pull-down; remark: listed apart in the source

B1: TRAK1_(569-623) (domain or fragment, human, UniProt Q9UPV9 569-623, looked up)
chain: YLPEKLQIVKPLEGSATLHHWQQLAQPHLGGILDPRPGVVTKGFRTLDVDLDEVY
cryo-EM structure
  binding result: binds

## B2
Mass photometry
  stoichiometry N: 2

B3: MBP-TRAK1_(416-431) (peptide, UniProt Q9UPV9 416-431, looked up)
chain: RSLTPSPMNIPGSNQS
MIRO1_(177-591)
  Kd: 10.9 to 15.9 µM
  stoichiometry N: 1

B4: MBP-TRAK1_(416-446,561-623) (domain or fragment, human, UniProt Q9UPV9 416-446, looked up)
chain: RSLTPSPMNIPGSNQSSAMNSLLSSCVSTPRGMSFSSRSYLPEKLQIVKPLEGSATLHHWQQLAQPHLGGILDPRPGVVTKGFRTLDVDLDEVY
[1]
  binding result: binds

B5: MBP-TRAK1_(416-446,561-623) W589D (domain or fragment, human, UniProt Q9UPV9 416-446, looked up)
chain: RSLTPSPMNIPGSNQSSAMNSLLSSCVSTPRGMSFSSRSYLPEKLQIVKPLEGSATLHHDQQLAQPHLGGILDPRPGVVTKGFRTLDVDLDEVY
[2]
  binding result: binds

B6: MBP-TRAK1_(416-446,561-623) L597D (domain or fragment, human, UniProt Q9UPV9 416-446, looked up)
chain: RSLTPSPMNIPGSNQSSAMNSLLSSCVSTPRGMSFSSRSYLPEKLQIVKPLEGSATLHHWQQLAQPHDGGILDPRPGVVTKGFRTLDVDLDEVY
[2]
  binding result: binds
